Patent publication US20130230533A1 (Regeneron, published 2013)
Substitutions are numbered along the chain they refer to. Names may count otherwise.

T1: Dimeric human CD48-mFc (human)
T1 chain: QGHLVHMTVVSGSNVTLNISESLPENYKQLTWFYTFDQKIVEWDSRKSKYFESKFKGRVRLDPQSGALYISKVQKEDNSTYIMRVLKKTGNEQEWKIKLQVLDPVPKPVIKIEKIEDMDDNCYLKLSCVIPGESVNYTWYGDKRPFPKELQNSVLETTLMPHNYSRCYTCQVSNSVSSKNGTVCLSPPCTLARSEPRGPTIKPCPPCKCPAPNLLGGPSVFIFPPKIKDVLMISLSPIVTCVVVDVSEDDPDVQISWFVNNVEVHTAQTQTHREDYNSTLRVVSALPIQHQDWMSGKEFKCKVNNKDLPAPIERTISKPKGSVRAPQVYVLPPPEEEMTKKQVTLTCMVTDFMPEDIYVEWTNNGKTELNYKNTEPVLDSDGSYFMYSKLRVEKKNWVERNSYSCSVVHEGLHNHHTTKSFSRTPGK

T2: Monomeric human CD48-mmH (human)
T2 construct: also called soluble CD48 expressed with a myc-myc-hexa-histidine C-terminal tag [mmH]
T2 chain: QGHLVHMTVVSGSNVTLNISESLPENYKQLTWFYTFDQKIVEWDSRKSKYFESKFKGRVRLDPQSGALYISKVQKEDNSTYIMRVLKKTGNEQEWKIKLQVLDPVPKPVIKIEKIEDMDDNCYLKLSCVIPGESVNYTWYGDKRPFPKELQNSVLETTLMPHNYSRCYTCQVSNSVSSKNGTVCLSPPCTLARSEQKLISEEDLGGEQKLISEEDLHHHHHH

B1: H3M1766N (antibody, V domains shown)
VH: EVQLVESGGGLAQPGGSLRLSCAASGFTFSSYEMNWVRQAPGKGLEWVSYITTSGSTIYYADSVKGRFTMSRDNAKKSLYLEMNSLRAEDTAVYYCAREECTNGVCYKDYQYYGMDVWGQGTTVTVSS
VL: DIQMTQSPSSVSASVGDRVTITCRASQNINTWLAWYQQKPGKVPKLLIYAASSLQSGVPSRFSGSGSGTDFTLTISSLQPEDFATYYCQQANSFPLTFGGGTKVEIK
notes: also called H2M1766N
B2: H4H1774P (antibody, human IgG4, V domains shown)
VH: QVQLVESGGGVVQPGRSLRLSCAASGFTFSNYGMHWVRQAPGKGLEWVAVIWYDESSKYYTDSVKGRFTISRDNSQNTLYLQMTSLRAEDTAVYYCARDRWTYSHYFEYWGQGTLVTVSS
VL: B1 VL with N28G, N30S, T31S, L33V, V43A, L96R, G100Q
notes: Human IgG4 Fc (prefix H4H)
B3: H4H1770P (antibody, human IgG4, V domains shown)
VH: QVQLVQSGAEVKKPGAAVKVSCKASGYTFTAYGISWVRQAPGQGLEWMGWISAYDGDTNNAQKFQGRVTMTTDTSSSTAYMELRSLGSDDTAVYYCARDRYSSSSGYFDYWGQGTLVTVSS
VL: B1 VL with N28D, N30S, T31S, Y36S, V43A, L46A, L96Y, G100Q, V104L
notes: Human IgG4 Fc (prefix H4H)
B4: H4H1781P (antibody, human IgG4, V domains shown)
VH: B2 VH with E55D, S57N, Y59N, T61A, Q76K, T84N, A88V, Y106F
VL: B1 VL with N28G, N30S, T31S, V43A, K45N, S63G, T72S, S77G, L96R, G100Q
notes: Human IgG4 Fc (prefix H4H)
B5: H4H1778P (antibody, human IgG4, V domains shown)
VH: B2 VH
VL: B1 VL with N28G, N30S, T31S, L33V, V43A, L96R, G100Q
notes: Human IgG4 Fc (prefix H4H)
B6: H4H1775P (antibody, human IgG4, V domains shown)
VH: B2 VH with S57G, Y59H, T61A
VL: B1 VL with N28D, N30S, T31S, L33V, V43A, L96R, G100Q
notes: Human IgG4 Fc (prefix H4H)
B7: H4H1779P (antibody, human IgG4, V domains shown)
VH: B2 VH with Y59H, T61A
VL: B1 VL with N28D, N30S, T31S, L33V, V43A, L96R, G100Q
notes: Human IgG4 Fc (prefix H4H)
B8: H4H1789Pa (antibody, V domains shown)
VH: EVQLLESGGGLVHPGGSLRLSCAASGFTFGGYAMSWVRQAPGKGLEWVSLISGSGGSTYYADSVKGRFTIFRDNSKNTLYLQMISLRAEDSAVYYCAKYSNYDYFDPWGQGTLVTVSS
VL: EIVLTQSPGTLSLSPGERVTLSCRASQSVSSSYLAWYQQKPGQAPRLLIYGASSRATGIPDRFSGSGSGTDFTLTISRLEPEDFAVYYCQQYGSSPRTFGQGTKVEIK
notes: Human IgG4 Fc (prefix H4H)
B9: H4H1771P (antibody, human IgG4, V domains shown)
VH: QVQLVQSGTEVKKPGASVKVSCKVSGYTLIDLSIHWVRQAPGEGLEWMGGFDPEESETIYAQKFQGRVTMTEDTSTDTAYMELSSLRSEDTAVYYCVTEPIFGILIHESWGQGTLVTVSS
VL: DIVMTQTPLSSPVTLGQPASISCRSSHSPVHSNGHTYLSWLQQRPGQPPRILIYKISRRFSGVPDRFSGSGAGTDFTLKISRVETEDVGIYYCMQASQFPWTFGQGTKVEIK
notes: Human IgG4 Fc (prefix H4H)
B10: H2M1707N (antibody, mouse IgG2, V domains shown)
VH: EGQLLESGGGLAQPGGSLRLSCAASGITFGRYAMSWVRQAPGKGLEWVSLISGSGGSTYHADSVKGRFTISRDNSKNTLYLQMNSLRAEDTAVYYCAIYNNYNWFDPWGQGTLVTVSS
VL: EIVLTQSPGTLSLSPGERATLSCRASQSVSSNYLAWYQQKPGQAPRLLIYDASSRATDIPDRFSGSGSGTDFTLTISRLEPEDFAVYYCQQYGSSPRTFGQGTKVEIK
B11: H2M1709N (antibody, mouse IgG2, V domains shown)
VH: QVQLVQSGAEVKKPGASVKVSCKVSGYTLTELSIHWVRQAPGKGLEWMGGFDPEDGETIYAQKFQGRVNMTEDTSTDTAYMELSSLRSDDTTVYFCASLLPYFDYWGQGTLVTVSS
VL: B10 VL with N32S, D51G, D58G, T75S, Y88F, P96M, R97Y, V105L
notes: Human variable domains, mouse IgG2 Fc (prefix H2M)
B12: H4H1707N (antibody, human IgG4, V domains shown)
VH: B10 VH
VL: B10 VL
notes: Human IgG4 Fc (prefix H4H)
B13: H4H1772P (antibody, human IgG4, V domains shown)
VH: EVQLVESGGGLVQPGGSLRLSCAASGFTFSSYWMSWVRQAPGKGLEWVANIMRDGSEKYYVDSVKGRFTISRDNAKNSLYLQMNSLRGEDTAVYYCARERGFYTNYGNWFDPWGQGTLVTVSS
VL: DIVMTQSPLSLTVTPGESASISCRSSQSLLHSYGYNSLDWYLQKPGQSPQFLIYLVSNRASGVPDRFSGSGSGTDFTLKISRVEAEDVGVYYCMQVLQTPYTFGQGTKLEIK
notes: Human IgG4 Fc (prefix H4H)
B14: H2M1763N (antibody, mouse IgG2, V domains shown)
VH: QIQLVQSGAEMKRPGTSVKVSCKASGYTFTSYGINWVRQAPGQGLEWMGWISAYNGDTNYAQKLQGRVTMTTDTSTTTAYMEVRSLRSDDTAVYYCARFLTGTKDYYYGMDVWGQGTTVTVSS
VL: DIQMTQSPSSLSASVGDRVTITCQASQDISNFLNWYQQKPGKAPDLLINDASILETGVPSRFSGSGSGTDFTLTINNLQPEDIATYYCQQYDNLPLTFGGGTKVEIK
notes: as for B11
B15: H2M1811N (antibody, mouse IgG2, V domains shown)
VH: QVQLVQSGAEAREPGASVRVSCKASGYTFTDYFIHWVRQAPGQGLEWMGWINPNSGATNFAQKFQGRVTMTRDTSLITAYMDLSRLKSDDAAVFYCARDVDGSGWYLDFWGQGTLVTVSS
VL: EIVLTQSPATLSLSPGERATLSCRASQSVSIYLAWYQQKPGQAPRLLIYDASNRATGIPARFSGSGSGTDFTLTISRLEPEDFAVYYCQQRSDWPPSITFGQGTRLEIK
notes: as for B11
B16: H2M1710N (antibody, mouse IgG2, V domains shown)
VH: QVQLVQSGADMKKPGASVRVSCKASGYTFTDYFIHWVRQAPGQGPEWMGWINPDSGATNYAQQFQGRVTMTRDTSISATYMEMSRLRSDDTAVFYCARDKDGSGWYLDDWGQGTLVTVSS
VL: B15 VL with S30N, T56S, R77S, D93N
notes: as for B11

Biological target: T1, Dimeric human CD48-mFc
Experiment: SPR (Biacore T100), 25 C, antibody captured by anti-Fc, dimeric CD48-mFc in solution
Experimental: (§1) Measurements were conducted on a T100-2 BIACORE™ instrument (Biacore Life Sciences division of GE Healthcare, Piscataway, N.J.). Antibodies (either with mouse Fc [designated “H2M” or “H3M”] or human IgG4 Fc [designated “H4H”]) were captured through an anti-Fc chip surface, and CD48 was flowed over the surface either in a monomeric (soluble CD48 expressed with a myc-myc-hexa-histidine C-terminal tag [mmH]) or dimeric (soluble CD48 expressed with a C-terminal Fc fusion [mFc]) format.
(§2) The soluble CD48 was applied to the flow cell in separate injections at different concentrations, and kinetic association (kₐ) and dissociation (kd) rate constants were determined by fits to the kinetic binding data using Biacore software. Binding dissociation equilibrium constants and dissociation half-times were calculated from the kinetic rate constants as: KD=kd/kₐ; t_{1/2}=(ln 2/kd) (units: ka=M⁻¹*s⁻¹; kd=s⁻¹; KD=M; T½=min) (Tables 3-6).

Kd [pM]	T½ [h]	koff [s⁻¹]	kon [M⁻¹ s⁻¹]	Binder
510	2.93	6.57e-05	129000	B1
14.9	41.4	4.65e-06	311000	B2
3.25	34.7	5.54e-06	1.71e+06	B3
14.4	15.7	1.23e-05	854000	B4
30.4	21.5	8.95e-06	294000	B5
17.9	14.7	1.31e-05	734000	B6
15.1	16.5	1.17e-05	774000	B7
95.8	5.25	3.66e-05	382000	B8
7.36	12.7	1.52e-05	2.07e+06	B9
92.3	2.92	6.59e-05	714000	B10
311	0.667	0.000288	928000	B11
73.6	6.8	2.83e-05	385000	B12
34.4	14.9	1.29e-05	376000	B13
256	0.383	0.000499	1.95e+06	B14
1600	0.833	0.00023	144000	B15
841	2.05	9.38e-05	112000	B16

Biological target: T2, Monomeric human CD48-mmH
Experiment: SPR (Biacore T100), 25 C, antibody captured by anti-Fc, monomeric CD48-mmH in solution
Experimental: as §1, §2

Kd [pM]	T½ [h]	koff [s⁻¹]	kon [M⁻¹ s⁻¹]	Binder
2790	1.08	0.000177	63400	B1
454	4.08	4.72e-05	104000	B2
259	1.27	0.000153	589000	B3
194	5.85	3.3e-05	170000	B4
476	4.1	4.69e-05	98600	B5
340	3.92	4.92e-05	145000	B6
246	4.93	3.9e-05	158000	B7
3200	0.417	0.000458	143000	B8
260	0.917	0.000209	805000	B9
4920	0.3	0.000642	131000	B10
19800	0.0333	0.0058	292000	B11
3570	0.317	0.000601	168000	B12
1380	1.1	0.000176	127000	B13
11800	0.0333	0.00648	548000	B14
17000	0.233	0.000849	50000	B15
39100	0.133	0.00146	37300	B16
